Like-named read-outs stand apart in the source and are kept apart here.
What was measured:
[1] = in vivo; cited from earlier work
Recombinant DPP-IV = Recombinant DPP-IV (Homo sapiens, UniProt P27487); assay: DPP-IV resistance assay by mass spectrometry
Experimental: The peptides were then desalted and concentrated on a C18 peptide micro trap (Michrom Bioresources, Inc., Auburn, Calif.) prior to introduction to a LTQ FT™ mass spectrometer (Thermo-Electron Corp., Waltham, Mass.) via an autosampler (Michrom Bioresources, Inc.). Peptides were eluted from a C5 packed 75 μm fused silica pico-frit column (New Objective, Inc., Woburn, Mass.) using a 5-60% acetonitrile/water gradient over 50 minutes at a flow rate of 500 nl/min. Extracted ion mass windows for the calculated m/z values of the most dominant charge states were used to search for both the parent compound and the theoretical hydrolyzed products within a given chromatogram. Exact mass was confirmed for each charge state by FT. The percentage of hydrolysis catalyzed by DPP-IV was estimated by dividing the area of product ions by the area of the total (parent+product) ions.
The estimated cleavage product conversion is based on the ratio of the ion extract area (indicated on top of the peaks) for [product ion]^5+ over that for total ions ([Mother Ion]^5++[product ion]^5+). The m/z ratios used to search for the expected ions are listed on the right side of the plots.

Sequence of Recombinant DPP-IV (P27487 whole entry, species assumed, the tested form may be a part): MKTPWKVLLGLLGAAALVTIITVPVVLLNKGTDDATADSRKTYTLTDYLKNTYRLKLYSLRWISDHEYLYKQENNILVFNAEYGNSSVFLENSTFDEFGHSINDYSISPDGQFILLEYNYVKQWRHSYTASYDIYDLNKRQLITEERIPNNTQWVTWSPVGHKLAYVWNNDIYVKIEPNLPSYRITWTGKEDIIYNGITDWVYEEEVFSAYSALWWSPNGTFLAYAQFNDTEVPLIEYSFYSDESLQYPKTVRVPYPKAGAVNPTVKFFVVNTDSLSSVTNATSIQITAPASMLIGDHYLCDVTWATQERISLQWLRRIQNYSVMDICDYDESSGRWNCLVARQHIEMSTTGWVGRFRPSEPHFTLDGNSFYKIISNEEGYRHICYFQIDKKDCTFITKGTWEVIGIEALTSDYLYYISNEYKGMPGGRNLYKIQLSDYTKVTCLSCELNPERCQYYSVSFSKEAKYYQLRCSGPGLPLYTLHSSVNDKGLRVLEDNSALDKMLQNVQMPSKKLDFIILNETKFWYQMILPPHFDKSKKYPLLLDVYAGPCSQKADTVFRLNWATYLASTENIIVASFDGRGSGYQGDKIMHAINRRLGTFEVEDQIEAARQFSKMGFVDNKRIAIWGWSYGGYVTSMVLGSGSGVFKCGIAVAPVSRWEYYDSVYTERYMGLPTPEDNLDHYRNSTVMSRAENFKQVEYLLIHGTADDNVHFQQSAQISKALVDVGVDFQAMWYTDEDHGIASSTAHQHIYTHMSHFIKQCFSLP

Structure (SMILES): CC[C@H](C)[C@H](NC(=O)[C@H](Cc1ccccc1)NC(=O)[C@H](CCC(=O)O)NC(=O)[C@H](CCCCN)NC(=O)[C@H](C)NC(=O)[C@H](C)NC(=O)[C@H](CCC(N)=O)NC(=O)CNC(=O)[C@H](CCC(=O)O)NC(=O)[C@H](CC(C)C)NC(=O)[C@H](Cc1ccc(O)cc1)NC(=O)[C@H](CO)NC(=O)[C@H](CO)NC(=O)[C@@H](NC(=O)[C@H](CC(=O)O)NC(=O)[C@H](CO)NC(=O)[C@@H](NC(=O)[C@H](Cc1ccccc1)NC(=O)[C@@H](NC(=O)CNC(=O)[C@H](CCC(=O)O)NC(=O)[C@H](C)NC(=O)[C@@H](N)Cc1c[nH]cn1)[C@@H](C)O)[C@@H](C)O)C(C)C)C(=O)N[C@@H](C)C(=O)N[C@@H](Cc1c[nH]c2ccccc12)C(=O)N[C@@H](CC(C)C)C(=O)N[C@H](C(=O)N[C@@H](CCCCN)C(=O)NCC(=O)N[C@@H](CCCNC(=N)N)C(N)=O)C(C)C [GLP-1, reference compound]
- metabolic clearance rate [1]: 12 to 13 min

Structure (SMILES): CC[C@H](C)[C@H](NC(=O)[C@H](Cc1ccccc1)NC(=O)[C@H](CCC(=O)O)NC(=O)[C@H](CCCCN)NC(=O)[C@H](C)NC(=O)[C@H](C)NC(=O)[C@H](CCC(N)=O)NC(=O)CNC(=O)[C@H](CCC(=O)O)NC(=O)[C@H](CC(C)C)NC(=O)[C@H](Cc1ccc(O)cc1)NC(=O)[C@H](CO)NC(=O)[C@H](CO)NC(=O)[C@@H](NC(=O)[C@H](CC(=O)O)NC(=O)[C@H](CO)NC(=O)[C@@H](NC(=O)[C@H](Cc1ccccc1)NC(=O)[C@@H](NC(=O)CNC(=O)[C@H](CCC(=O)O)NC(=O)[C@H](C)NC(=O)[C@@H](N)Cc1c[nH]cn1)[C@@H](C)O)[C@@H](C)O)C(C)C)C(=O)N[C@@H](C)C(=O)N[C@@H](Cc1c[nH]c2ccccc12)C(=O)N[C@@H](CC(C)C)C(=O)N[C@H](C(=O)N[C@@H](CCCCN)C(=O)NCC(=O)N[C@@H](CCCNC(=N)N)C(=O)NCC(=O)NCC(=O)NCC(=O)NCCCC[C@H](N)C(=O)N1CCSC1C#N)C(C)C (stereo partly drawn) [Compound 4845, GLP-1(7-37)-GG-(S)-2,6-diamino-1-(thiazolidin-2-cyano-3-yl)hexan-1-one amide]
- DPP-IV resistance (in words) (Recombinant DPP-IV): expected product ions were not observed

Structure (SMILES): CC[C@H](C)[C@H](NC(=O)[C@H](Cc1ccccc1)NC(=O)[C@H](CCC(=O)O)NC(=O)[C@H](CCCCN)NC(=O)[C@H](C)NC(=O)[C@H](C)NC(=O)[C@H](CCC(N)=O)NC(=O)CNC(=O)[C@H](CCC(=O)O)NC(=O)[C@H](CC(C)C)NC(=O)[C@H](Cc1ccc(O)cc1)NC(=O)[C@H](CO)NC(=O)[C@H](CO)NC(=O)[C@@H](NC(=O)[C@H](CC(=O)O)NC(=O)[C@H](CO)NC(=O)[C@@H](NC(=O)[C@H](Cc1ccccc1)NC(=O)[C@@H](NC(=O)CNC(=O)[C@H](CCC(=O)O)NC(=O)[C@H](C)NC(=O)[C@@H](N)Cc1c[nH]cn1)[C@@H](C)O)[C@@H](C)O)C(C)C)C(=O)N[C@@H](C)C(=O)N[C@@H](Cc1c[nH]c2ccccc12)C(=O)N[C@@H](CC(C)C)C(=O)N[C@H](C(=O)N[C@@H](CCCCN)C(=O)NCC(=O)N[C@@H](CCCNC(=N)N)C(=O)NCC(=O)NCC(=O)NCC(=O)NCCCC[C@H](N)C(=O)N1CCSC1)C(C)C [Compound 4844, GLP-1(7-37)-GG-(S)-2,6-diamino-1-(thiazolidin-3-yl)hexan-1-one amide]
- DPP-IV resistance (in words) (Recombinant DPP-IV; treated with 0.1 mU DPP-IV): expected product ions were not observed
